These results are taken from patent publication US20240254222A1 (Bayer, published 2024).

Substitutions are numbered along the chain they refer to.

First the molecules themselves.
T1: Human Semaphorin3A-Sema Domain, TPP-19068 (human, UniProt Q14563 21-569)
T1 construct: produced inhouse in HEK293-6E; also called human monovalent Sema3A domain
T1 sequence: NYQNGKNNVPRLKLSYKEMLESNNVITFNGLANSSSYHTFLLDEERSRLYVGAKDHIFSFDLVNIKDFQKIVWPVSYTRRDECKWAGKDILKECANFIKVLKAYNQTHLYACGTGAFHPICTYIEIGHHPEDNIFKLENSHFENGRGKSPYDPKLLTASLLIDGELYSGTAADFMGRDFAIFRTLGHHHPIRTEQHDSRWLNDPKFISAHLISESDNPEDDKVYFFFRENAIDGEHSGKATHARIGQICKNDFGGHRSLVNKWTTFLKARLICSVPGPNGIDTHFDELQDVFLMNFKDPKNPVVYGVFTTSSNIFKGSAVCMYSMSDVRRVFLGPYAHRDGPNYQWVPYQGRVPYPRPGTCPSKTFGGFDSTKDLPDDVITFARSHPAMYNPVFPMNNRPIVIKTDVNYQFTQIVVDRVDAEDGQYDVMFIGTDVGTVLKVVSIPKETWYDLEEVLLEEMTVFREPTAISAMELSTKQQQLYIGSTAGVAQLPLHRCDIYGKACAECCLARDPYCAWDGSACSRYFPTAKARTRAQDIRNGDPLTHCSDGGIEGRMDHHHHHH

T2: Cyno Semaphorin3A-Sema Domain, TPP-19122 (cynomolgus (Macaca fascicularis), UniProt Q63548 21-569 (rat entry), limits assumed)
T2 construct: produced inhouse
T2 chain: T1 sequence with D61N, K205R, S213P, V303I, M396I, V402M, Y450H, A468T, V489I, A521S

T3: Mouse Semaphorin3A-Sema Domain, TPP-19069 (mouse, UniProt O08665 21-569)
T3 construct: produced inhouse
T3 sequence: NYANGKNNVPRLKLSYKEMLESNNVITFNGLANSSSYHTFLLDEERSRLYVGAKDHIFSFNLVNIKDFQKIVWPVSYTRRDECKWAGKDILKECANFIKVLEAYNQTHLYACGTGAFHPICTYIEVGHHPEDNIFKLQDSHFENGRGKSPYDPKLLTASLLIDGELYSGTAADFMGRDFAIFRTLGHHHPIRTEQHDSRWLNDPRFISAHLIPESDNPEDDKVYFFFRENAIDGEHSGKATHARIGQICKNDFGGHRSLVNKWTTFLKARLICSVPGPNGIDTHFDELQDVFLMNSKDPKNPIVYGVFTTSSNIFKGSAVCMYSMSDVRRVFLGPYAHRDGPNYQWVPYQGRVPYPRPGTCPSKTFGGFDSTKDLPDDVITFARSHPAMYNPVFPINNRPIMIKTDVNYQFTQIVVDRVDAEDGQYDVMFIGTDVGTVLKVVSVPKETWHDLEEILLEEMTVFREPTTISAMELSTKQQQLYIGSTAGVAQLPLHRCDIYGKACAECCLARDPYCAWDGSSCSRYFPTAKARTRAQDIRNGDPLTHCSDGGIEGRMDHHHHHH

B1: TPP-15051 (antibody, mouse IgG1)
heavy: EVQLLESGGGLVQPGGSLRLSCAASGFTFSSYPMGWVRQAPGKGLEWVAGIDDDGDSDTRYAPAVKGRATISRDNSKNTVYLQMNSLRAEDTAVYYCAKHTGIGANSAGSIDAWGQGTLVTVSSAKTTPPSVYPLAPGSAAQTNSMVTLGCLVKGYFPEPVTVTWNSGSLSSGVHTFPAVLQSDLYTLSSSVTVPSSTWPSETVTCNVAHPASSTKVDKKIVPRDCGCKPCICTVPEVSSVFIFPPKPKDVLTITLTPKVTCVVVDISKDDPEVQFSWFVDDVEVHTAQTQPREEQFNSTFRSVSELPIMHQDWLNGKEFKCRVNSAAFPAPIEKTISKTKGRPKAPQVYTIPPPKEQMAKDKVSLTCMITDFFPEDITVEWQWNGQPAENYKNTQPIMDTDGSYFVYSKLNVQKSNWEAGNTFTCSVLHEGLHNHHTEKSLSHSPGK
light: SYELTQPPSVSVSPGQTARITCSGGGSYTGSYYYGWYQQKPGQAPVTVIYYNNKRPSDIPERFSGSLSGTTNTLTISGVQAEDEADYYCGSADNSGDAFGTGTKVTVLGQPKSSPSVTLFPPSSEELETNKATLVCTITDFYPGVVTVDWKVDGTPVTQGMETTQPSKQSNNKYMASSYLTLTARAWERHSSYSCQVTHEGHTVEKSLSRADCS
B2: TPP-25257 (antibody, human IgG1, lambda, V domains shown)
VH: EVQLLESGGGLVQPGGSLRLSCAASGFDFDSYEMNWVRQAPGKGLEWVSGISWNSGWIDYADSVKGRFTISRDNSKNTLYLQMNSLRAEDTAVYYCARSGYSSSWFDPDFDYWGQGTLVTVSS
VL: QSVLTQPPSVSGAPGQRVTISCTGSSSNIGAGYDVHWYQQLPGTAPKLLIYGNSNRPSGVPDRFSGSKSGTSASLAITGLQAEDEADYYCQSYAGPNPYVVFGGGTKLTVLG
B3: TPP-25255 (antibody, human IgG1, lambda, V domains shown)
VH: B2 VH with D30S
VL: B2 VL
B4: TPP-25248 (antibody, human IgG1, lambda, V domains shown)
VH: B2 VH with D30S, D59G
VL: B2 VL
B5: TPP-25655 (antibody, human IgG1, lambda, V domains shown)
VH: B2 VH with D30S
VL: B2 VL with N53A, Q91S, A94E
B6: TPP-25497 (antibody, human IgG1, lambda, V domains shown)
VH: B2 VH
VL: B2 VL with N28D, Q91S, A94E, P96I
B7: TPP-26111 (antibody, human IgG1, lambda, V domains shown)
VH: B2 VH with D28T
VL: B2 VL with Q91S
B8: TPP-25064 (antibody, human IgG1, lambda, V domains shown)
VH: B2 VH with D28T
VL: B2 VL with N28D, Q91S
B9: TPP-25224 (antibody, human IgG1, lambda, V domains shown)
VH: B2 VH with D28T
VL: B2 VL with P96I
B10: TPP-25448 (antibody, human IgG1, lambda, V domains shown)
VH: B2 VH with D28T
VL: B2 VL with N28D, P96I
B11: TPP-25256 (antibody, human IgG1, lambda, V domains shown)
VH: B2 VH with D28T
VL: B2 VL
B12: TPP-18533 (antibody, human IgG1, lambda, V domains shown)
VH: B2 VH with D28T, D30S, W57S, D59G
VL: B2 VL with Q91S, P96S
notes: IgG1

T4 sequence (chain, as listed by the source limits assumed): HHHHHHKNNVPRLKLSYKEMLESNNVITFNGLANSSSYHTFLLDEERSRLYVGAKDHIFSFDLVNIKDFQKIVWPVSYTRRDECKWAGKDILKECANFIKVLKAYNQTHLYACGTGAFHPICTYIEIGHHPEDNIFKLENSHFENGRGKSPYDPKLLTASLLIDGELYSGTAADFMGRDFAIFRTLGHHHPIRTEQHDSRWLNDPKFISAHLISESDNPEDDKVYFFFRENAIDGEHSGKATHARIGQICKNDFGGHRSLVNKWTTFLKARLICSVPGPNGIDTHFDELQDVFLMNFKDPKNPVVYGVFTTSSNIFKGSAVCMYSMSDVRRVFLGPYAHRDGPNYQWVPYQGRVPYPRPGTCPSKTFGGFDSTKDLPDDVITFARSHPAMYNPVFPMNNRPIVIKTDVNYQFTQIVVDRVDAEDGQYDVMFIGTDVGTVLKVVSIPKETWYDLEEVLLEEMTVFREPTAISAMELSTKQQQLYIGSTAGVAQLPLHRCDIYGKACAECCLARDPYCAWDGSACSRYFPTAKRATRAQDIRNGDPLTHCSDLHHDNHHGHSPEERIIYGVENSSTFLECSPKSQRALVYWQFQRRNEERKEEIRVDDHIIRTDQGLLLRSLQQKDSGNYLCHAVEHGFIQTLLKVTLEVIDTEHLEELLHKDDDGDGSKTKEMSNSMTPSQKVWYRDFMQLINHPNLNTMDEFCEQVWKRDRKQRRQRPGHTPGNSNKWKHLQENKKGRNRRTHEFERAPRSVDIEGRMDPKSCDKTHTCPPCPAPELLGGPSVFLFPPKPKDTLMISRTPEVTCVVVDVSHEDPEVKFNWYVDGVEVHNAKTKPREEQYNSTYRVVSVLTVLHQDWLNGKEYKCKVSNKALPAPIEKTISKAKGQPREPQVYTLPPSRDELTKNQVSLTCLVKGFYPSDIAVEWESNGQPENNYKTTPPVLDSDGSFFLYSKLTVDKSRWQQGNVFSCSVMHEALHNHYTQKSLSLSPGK

In the first assay the target is Human Semaphorin3A-Fc (R&D Systems), TPP-13211 (human). Nature of the assay: cell-based or functional assay.
For B1, the “EC50 [nM], MCM assay” value stood at 42.9 nM.

A further assay addresses T4, Human Semaphorin3A-Fc (R&D Systems), TPP-13211 (human).
T4 construct: R&D Systems 1250-S3; also called recombinant human Sema3A-Fc chimera
Nature of the assay: competition ELISA on coated TPP-13211, competitor biotinylated TPP-15374. The method, then: For screening in a competition ELISA setup, human Sema3a (TPP-13211) was coated onto 384-well plates (Greiner bio-one, 781077) with a concentration of 0.5 μg/ml in coating buffer (Carbonate-Basis pH 9.6, Candor 121125) over night at 10° C. After washing the plates 3 times with 50 μl PBS 0.05% Tween the plates were blocked with 50 μl Smart Block® (Candor 113500) for 1 h at 20° C. and washed again 3 times as described.
Subsequently, 20 μl of pre-mixed antibody solution was added to the plates and incubate for 18 h at 10° C. […] The total concentration of the added antibody solution was 0.25 μg/ml. During the incubation time the antibodies bound to the plates in a competitive manner as they compete for the same epitope on the human Sema3A protein.
After subsequent washing with 50 μl PBS 0.05% Tween for 3 times, 20 μl of a Streptavidin-HRP solution (R&D Systems, DY998, 1:200 in PBS 0.05% Tween 10% Smart Block) were added and incubated for 1 h and 20° C. followed by subsequent washing 3 times with 50 μl PBS 0.05% Tween and addition of 20 μl Amplex Red solution (Invitrogen A12222, 1:1000 in NaP-buffer 50 mM pH7.6 with 1:10000 of 30% H2O2). After a final incubation for 20 min at 20° C. the signal was determined using an emission wavelength of 595 nm and excitation of 530 nm.
(ELISA stands for enzyme-linked immunosorbent assay.)
In the case of B2, the “VAL norm to TPP-9809 (1 to 1 ratio)” value worked out at 0.36 and the “VAL norm to TPP-9809 (1 to 5 ratio)” value amounted to 0.18.

As to B3, the “VAL norm to TPP-9809 (1 to 1 ratio)” value stood at 0.37 and the “VAL norm to TPP-9809 (1 to 5 ratio)” value worked out at 0.17.

Take B4: the “VAL norm to TPP-9809 (1 to 1 ratio)” value came to 0.36 and the “VAL norm to TPP-9809 (1 to 5 ratio)” value amounted to 0.2.

With B5, the “VAL norm to TPP-9809 (1 to 1 ratio)” value is 0.39 and the “VAL norm to TPP-9809 (1 to 5 ratio)” value came out at 0.23.

As to B6, the “VAL norm to TPP-9809 (1 to 1 ratio)” value was 0.39 and the “VAL norm to TPP-9809 (1 to 5 ratio)” value was 0.26.

For B7, the “VAL norm to TPP-9809 (1 to 1 ratio)” value was determined as 0.49 and the “VAL norm to TPP-9809 (1 to 5 ratio)” value is 0.18.

As for B8, the “VAL norm to TPP-9809 (1 to 1 ratio)” value turned out to be 0.48 and the “VAL norm to TPP-9809 (1 to 5 ratio)” value stood at 0.19.

For B9, the “VAL norm to TPP-9809 (1 to 1 ratio)” value turned out to be 0.43 and the “VAL norm to TPP-9809 (1 to 5 ratio)” value amounted to 0.17.

On to B10, for which the “VAL norm to TPP-9809 (1 to 1 ratio)” value is 0.47 and the “VAL norm to TPP-9809 (1 to 5 ratio)” value amounted to 0.19.

For the molecule B11, the “VAL norm to TPP-9809 (1 to 1 ratio)” value was determined as 0.41 and the “VAL norm to TPP-9809 (1 to 5 ratio)” value was found to be 0.15.

The target of the next assay is T1, Human Semaphorin3A-Sema Domain, …. Nature of the assay: SPR, captured antibody, Sema3A domain analyte. The method, then: (§1) To assess the binding kinetics and affinity of anti-Sema3A antibodies as well as their species cross-reactivity profile, binding assays were conducted using surface plasmon resonance (SPR). Binding assays were performed on a Biacore T200 instrument or on a Biacore 8K+ instrument (Cytiva) at 25° C. using assay buffer HBS P+, 300 mM NaCl, 0.75 mM CaCl₂, 2.5 mM MgCl₂, 1 mg/ml BSA, 0.05% NaN₃. Antibodies were captured either via anti-human Fc IgGs (“Human antibody capture kit”, Order No. BR100839, Cytiva) or in case of Fc-tagged analytes by anti-human Fab IgGs (“Human Fab capture kit”, Order No. 28958325, Cytiva) covalently amine coupled to a Series S CM5 sensor chip (Cytiva). The amine coupling was carried out according to the manufacturer's instructions using 1-ethyl-3-(3-dimethylaminopropyl) carbodiimide hydrochloride (EDC), N-hydroxysuccinimide (NHS) and ethanolamine HCl, pH 8.5 (“Amine Coupling Kit” BR-1000-50, Cytiva.). For phage display hits Fc-tagged human and mouse Sema3A was used as analytes in a concentration range from 1.56-200 nM. Human, mouse, cynomolgus, rat, dog and pig monovalent Sema3A domain were used as analytes in a concentration series from […] in multi cycle kinetics mode or in 100 nM for binding analysis only. The sensor surface was regenerated with glycine pH 2.0 after each antigen injection. Obtained sensorgrams were double referenced (subtraction of reference flow cell signal and buffer injection) and were fitted to a 1:1 Langmuir binding model to derive kinetic data using the Biacore T200 Evaluation software.
For orientation: SPR reads the build-up and loss of mass on a sensor chip optically.
The term Kd denotes the free concentration of one partner at which half of the binding sites on the other are occupied at equilibrium, for simple one-to-one binding. In turn, B12 came in with a Kd of 8.7 nM.

For the molecule B2, binding was put at a Kd of 0.053 nM.

On to B3, for which binding was characterised by a dissociation constant (Kd) of 0.051 nM.

Consider B4, for which the equilibrium dissociation constant (Kd) came to 0.05 nM.

In turn, B5 displayed a dissociation constant (Kd) of 0.049 nM.

For the molecule B6, binding was characterised by a dissociation constant (Kd) of 0.052 nM.

As to B7, the Kd came out at 0.052 nM.

The molecule B8 had a Kd of 0.049 nM.

For B9, the dissociation constant Kd was found to be 0.049 nM.

B10 showed a dissociation constant Kd of 0.053 nM.

B11 returned a Kd of 0.049 nM.

The next assay addresses T2, Cyno Semaphorin3A-Sema Domain, TPP-19122. Nature of the assay: SPR, captured antibody, Sema3A domain analyte. The method, then: as §1
The molecule B12 returned a Kd of 6.4 nM.

In a further assay the target is T3, Mouse Semaphorin3A-Sema Domain, …. Nature of the assay: SPR, captured antibody, Sema3A domain analyte. Here is the method: as §1
In turn, B12 had a Kd of 8.1 nM.

The next assay has as its target T4, Human Semaphorin3A-Fc (R&D Systems), …. Nature of the assay: cell-based or functional assay.
On to B1, for which the “EC50 (nM), GCC assay” value worked out at 243 nM.
